Results: patent US20150183867A1 (AbbVie / Abbott, published 2015)
Several values for one entry are separate records, joined by “and”; a condition that tells them apart may be missing. Equal entries are not always repeated.

How the values were obtained:
[1] = target: T1, Aβ1-42 (UniProt P05067 672-713); assay: Aβ 1-42 ELISA, peptide on plate; C-terminal VD
T1 construct: domain: Aβ1-42; Aβ 1-42 is a part of it; also called A beta
Description: (§1) ELISA assays were performed to screen for antibodies that bind a desired target antigen as follows. Maxisorb NUNC Immuno plates were coated with 100 μL/well of 1 μg/ml of Aβ1-42 diluted in coating buffer overnight at 6° C. Plates were washed three times with PBS containing 0.02% Tween 20. Blocking solution was prepared by dissolving the blocking reagent for ELISA (Roche) in 100 mL water and then diluted further 1:10 prior to use. Plates were blocked by the addition of 265 μL/well blocking solution for 2 hours at room temperature. Plates were washed three times after blocking with PBS containing 0.02% Tween 20.
(§2) Antibody or DVD-Igs were diluted to 100 ng/μL in PBST+0.5% BSA and serially diluted 1:3. One hundred microliters of antibody or DVD-Ig preparations was added to the plate and incubated for 2 hour at room temperature. Wells were washed three times with PBS containing 0.02% Tween 20.
(§3) One hundred microliters of TMB solution was added to each well and incubated for 10 minutes. TMB solution was prepared by mixing 20 mL 100 mM natrium-acetate pH4.9 with 200 μL TMB solution (Roche #92817060) and 29.5 μL 3% H₂O₂. The reaction was stopped by the addition of 50 μL 1N sulphuric acid. Plates were read spectrophotometrically at a wavelength of 450 nm.

[2] = target: T2, IL-18 (UniProt Q14116 37-193, limits assumed); assay: direct bind ELISA, antigen on plate; N-terminal VD
T2 construct: Bought reagent
Description: (§4) Enzyme Linked Immunosorbent Assays to screen for antibodies that bind a desired target antigen were performed as follows. High bind ELISA plates (Corning Costar #3369, Acton, Mass.) were coated with 100 μL/well of 10 μg/ml of desired target antigen (R&D Systems, Minneapolis, Minn.) or desired target antigen extra-cellular domain/FC fusion protein (R&D Systems, Minneapolis, Minn.) or monoclonal mouse anti-polyHistidine antibody (R&D Systems # MAB050, Minneapolis, Minn.) in phosphate buffered saline (10×PBS, Abbott Bioresearch Center, Media Prep# MPS-073, Worcester, Mass.) overnight at 4° C. Plates were washed four times with PBS containing 0.02% Tween 20. Plates were blocked by the addition of 300 μL/well blocking solution (non-fat dry milk powder, various retail suppliers, diluted to 2% in PBS) for 1/2 hour at room temperature. Plates were washed four times after blocking with PBS containing 0.02% Tween 20.
(§5) One hundred microliters of antibody or DVD-Ig preparations diluted in blocking solution as described above was added to the desired target antigen plate or desired target antigen/FC fusion plate or the anti-polyHistidine antibody/His tagged desired target antigen plate prepared as described above and incubated for 1 hour at room temperature. Wells were washed four times with PBS containing 0.02% Tween 20.
(§6) One hundred microliters of 10 ng/mL goat anti-human IgG-FC specific HRP conjugated antibody (Southern Biotech #2040-05, Birmingham, Ala.) was added to each well of the desired target antigen plate or anti-polyHistidine antibody/Histidine tagged desired target antigen plate. Alternatively, one hundred microliters of 10 ng/mL goat anti-human IgG-kappa light chain specific HRP conjugated antibody (Southern Biotech #2060-05 Birmingham, Ala.) was added to each well of the desired target antigen/FC fusion plate and incubated for 1 hour at room temperature. Plates were washed 4 times with PBS containing 0.02% Tween 20.

[3] = target: T3, IGF-I (UniProt P05019 49-118); assay: direct bind ELISA, antigen on plate; N-terminal VD
T3 construct: Bought reagent; also called IGF1; IGF-1
Description: as §4, §5, §6

[4] = target: T4, IGF-II (UniProt P01344 25-91); assay: direct bind ELISA, antigen on plate; N-terminal VD
T4 construct: Bought reagent; also called IGF2; IGF-2
Description: as §4, §5, §6

[5] = target: T1, Aβ1-42; assay: Aβ 1-42 ELISA, peptide on plate; N-terminal VD
Description: as §1, §2, §3

[6] = target: T5, RAGE/FC Chimera (UniProt Q15109 23-342); assay: direct bind ELISA, antigen on plate; parent antibody
T5 construct: extracellular domain; Bought reagent; not shown: Fc region of the bought chimera
Description: as §4, §5, §6

[7] = target: T5, RAGE/FC Chimera; assay: direct bind ELISA, antigen on plate; C-terminal VD
Description: as §4, §5, §6

[8] = target: T6, Repulsive Guidence Molecule A (UniProt Q96B86 48-422, limits assumed); assay: SPR (Biacore), antibody captured; parent antibody
T6 construct: Bought reagent for the ELISA; also called RGM-A; RGMa
T6 sequence (looked up): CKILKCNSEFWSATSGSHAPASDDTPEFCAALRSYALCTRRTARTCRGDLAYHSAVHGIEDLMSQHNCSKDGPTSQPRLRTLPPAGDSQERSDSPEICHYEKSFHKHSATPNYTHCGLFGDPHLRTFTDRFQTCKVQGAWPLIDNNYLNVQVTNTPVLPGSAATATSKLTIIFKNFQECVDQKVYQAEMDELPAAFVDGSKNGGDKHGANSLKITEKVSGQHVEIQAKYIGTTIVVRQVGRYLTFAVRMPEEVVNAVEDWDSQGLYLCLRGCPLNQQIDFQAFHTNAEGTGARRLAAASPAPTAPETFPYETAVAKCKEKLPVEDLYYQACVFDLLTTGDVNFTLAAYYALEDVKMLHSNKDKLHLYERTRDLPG
Description: The BIACORE assay (Biacore, Inc, Piscataway, N.J.) determines the affinity of antibodies or DVD-Ig with kinetic measurements of on-rate and off-rate constants. Binding of antibodies or DVD-Ig to a target antigen (for example, a purified recombinant target antigen) is determined by surface plasmon resonance-based measurements with a Biacore® 1000 or 3000 instrument (Biacore® AB, Uppsala, Sweden) using running HBS-EP (10 mM HEPES [pH 7.4], 150 mM NaCl, 3 mM EDTA, and 0.005% surfactant P20) at 25° C. All chemicals are obtained from Biacore® AB (Uppsala, Sweden) or otherwise from a different source as described in the text. For example, approximately 5000 RU of goat anti-mouse IgG, (Fcγ), fragment specific polyclonal antibody (Pierce Biotechnology Inc, Rockford, Ill.) diluted in 10 mM sodium acetate (pH 4.5) is directly immobilized across a CMS research grade biosensor chip using a standard amine coupling kit according to manufacturer's instructions and procedures at 25 μg/ml. Unreacted moieties on the biosensor surface are blocked with ethanolamine. Modified carboxymethyl dextran surface in flowcell 2 and 4 is used as a reaction surface. Unmodified carboxymethyl dextran without goat anti-mouse IgG in flow cell 1 and 3 is used as the reference surface. For kinetic analysis, rate equations derived from the 1:1 Langmuir binding model are fitted simultaneously to association and dissociation phases of all eight injections (using global fit analysis) with the use of Biaevaluation 4.0.1 software. Purified antibodies or DVD-Ig are diluted in HEPES-buffered saline for capture across goat anti-mouse IgG specific reaction surfaces. Antibodies or DVD-Ig to be captured as a ligand (25 μg/ml) are injected over reaction matrices at a flow rate of 5 μl/min. […] The equilibrium dissociation constant (M) of the reaction between antibodies or DVD-Igs and the target antigen is then calculated from the kinetic rate constants by the following formula: KD=koff/kₒₙ. Binding is recorded as a function of time and kinetic rate constants are calculated.

[9] = target: T6, Repulsive Guidence Molecule A; assay: direct bind ELISA, antigen on plate; parent antibody
Description: as §4, §5, §6

[10] = target: T7, Recombinant Human IL-1β (human, UniProt P01584 117-269); assay: as above
T7 construct: Bought reagent; also called IL-1B
Description: as §4, §5, §6

[11] = target: T5, RAGE/FC Chimera; assay: direct bind ELISA, antigen on plate; N-terminal VD
Description: as §4, §5, §6

T5 sequence (Q15109 23-342, change not shown): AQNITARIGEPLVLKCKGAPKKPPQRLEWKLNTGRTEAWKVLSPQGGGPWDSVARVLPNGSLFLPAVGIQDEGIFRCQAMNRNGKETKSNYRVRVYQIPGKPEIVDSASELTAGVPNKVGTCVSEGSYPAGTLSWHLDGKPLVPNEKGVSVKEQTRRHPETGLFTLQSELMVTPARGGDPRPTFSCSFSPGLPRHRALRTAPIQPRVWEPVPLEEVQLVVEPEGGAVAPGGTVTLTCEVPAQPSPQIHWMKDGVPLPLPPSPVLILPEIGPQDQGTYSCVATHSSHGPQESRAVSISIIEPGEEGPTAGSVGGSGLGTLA

B1: DVD232 (bispecific antibody, human IgG1, kappa)
heavy: not shown
light: EIVMTQSPATLSVSPGERATLSCRASESISSNLAWYQQKPGQAPRLFIYTASTRATDIPARFSGSGSGTEFTLTISSLQSEDFAVYYCQQYNNWPSITFGQGTRLEIKRTVAAPDVVMTQSPLSLPVTPGEPASISCKSSQSLLDSDGKTYLNWLLQKPGQSPQRLIYLVSKLDSGVPDRFSGSGSGTDFTLKISRVEAEDVGVYYCWQGTHFPRTFGQGTKVEIKRTVAAPSVFIFPPSDEQLKSGTASVVCLLNNFYPREAKVQWKVDNALQSGNSQESVTEQDSKDSTYSLSSTLTLSKADYEKHKVYACEVTHQGLSSPVTKSFNRGEC
notes: DVD-Ig; also called VD232H/VD232L
EC50 [1]: 0.048 nM
EC50 [2]: 0.68 nM

B2: DVD230 (bispecific antibody, human IgG1, kappa)
heavy: not shown
light: QSVLTQPPSVSAAPGQKVTISCSGSSSNIENNHVSWYQQLPGTAPKLLIYDNNKRPSGIPDRFSGSKSGTSATLGITGLQTGDEADYYCETWDTSLSAGRVFGGGTKLTVLGQPKAAPDVVMTQSPLSLPVTPGEPASISCKSSQSLLDSDGKTYLNWLLQKPGQSPQRLIYLVSKLDSGVPDRFSGSGSGTDFTLKISRVEAEDVGVYYCWQGTHFPRTFGQGTKVEIKRTVAAPSVFIFPPSDEQLKSGTASVVCLLNNFYPREAKVQWKVDNALQSGNSQESVTEQDSKDSTYSLSSTLTLSKADYEKHKVYACEVTHQGLSSPVTKSFNRGEC
notes: DVD-Ig; also called VD230H/VD230L
EC50 [1]: 0.039 nM
EC50 [3]: 4.84 nM
EC50 [4]: 2.44 nM

B3: DVD233 (bispecific antibody, human IgG1, kappa)
heavy: not shown
light: DVVMTQSPLSLPVTPGEPASISCKSSQSLLDSDGKTYLNWLLQKPGQSPQRLIYLVSKLDSGVPDRFSGSGSGTDFTLKISRVEAEDVGVYYCWQGTHFPRTFGQGTKVEIKRTVAAPQIVLIQSPAIMSASPGEKVTMTCSASSSVSYMYWYQQKPGSSPRLLIYDTSNLASGVPVRFSGSGSGTSYSLTISRMEAEDAATYYCQQWSGYPYTFGGGTKLEIKRTVAAPSVFIFPPSDEQLKSGTASVVCLLNNFYPREAKVQWKVDNALQSGNSQESVTEQDSKDSTYSLSSTLTLSKADYEKHKVYACEVTHQGLSSPVTKSFNRGEC
notes: DVD-Ig; also called VD233H/VD233L
EC50 [5]: 0.013 nM

B4: AB060 (antibody, human IgG1, kappa, V domains shown)
VH: QIQLVQSGPELKKPGETVKISCKASGYTFTNFGMNWVKQAPGKGLKWMGYINTNTGESIYSEEFKGRFAFSLETSASTAYLQINNLKNEDTATYFCARSRMVTAYGMDYWGQGTSVTVSS
VL: DIVMTQSQKFMSTSVGDRVSITCKASQNVGTAVAWYQQRPGQSPKLLIFSASNRYTGVPDRFTGSGSGTDFTLTLSNMQPEDLADYFCQQYSSYPLTFGVGTKLELKR
EC50 [6]: 1.69 nM and 0.64 nM

B5: DVD294 (bispecific antibody, human IgG1, kappa)
heavy: not shown
light: DVVMTQSPLSLPVTPGEPASISCKSSQSLLDSDGKTYLNWLLQKPGQSPQRLIYLVSKLDSGVPDRFSGSGSGTDFTLKISRVEAEDVGVYYCWQGTHFPRTFGQGTKVEIKRTVAAPDIVMTQSQKFMSTSVGDRVSITCKASQNVGTAVAWYQQRPGQSPKLLIFSASNRYTGVPDRFTGSGSGTDFTLTLSNMQPEDLADYFCQQYSSYPLTFGVGTKLELKRTVAAPSVFIFPPSDEQLKSGTASVVCLLNNFYPREAKVQWKVDNALQSGNSQESVTEQDSKDSTYSLSSTLTLSKADYEKHKVYACEVTHQGLSSPVTKSFNRGEC
notes: DVD-Ig; also called VD294H/VD294L
EC50 [5]: 0.014 nM
EC50 [7]: 1.53 nM

B6: AB059 (antibody, human IgG1, kappa, V domains shown)
VH: EVQLVESGGGLVQPGSSLKLSCVASGFTFSNYGMNWIRQAPKKGLEWIGMIYYDSSEKHYADSVKGRFTISRDNSKNTLYLEMNSLRSEDTAIYYCAKGTTPDYWGQGVMVTVSS
VL: DVVLTQTPVSLSVTLGDQASMSCRSSQSLEYSDGYTFLEWFLQKPGQSPQLLIYEVSNRFSGVPDRFIGSGSGTDFTLKISRVEPEDLGVYYCFQATHDPLTFGSGTKLEIKR
notes: also called RGMa parent antibody; RGMA parent antibody
Kd [8]: 0.64 nM
koff [8]: 0.000609 s⁻¹
kon [8]: 952000 M⁻¹ s⁻¹
EC50 [9]: 0.13 nM

B7: AB032 (antibody, human IgG1, kappa, V domains shown)
VH: QVQLVESGGGVVQPGRSLRLSCAASGFTFSVYGMNWVRQAPGKGLEWVAIIWYDGDNQYYADSVKGRFTISRDNSKNTLYLQMNGLRAEDTAVYYCARDLRTGPFDYWGQGTLVTVSS
VL: EIVLTQSPDFQSVTPKEKVTITCRASQSIGSSLHWYQQKPDQSPKLLIKYASQSFSGVPSRFSGSGSGTDFTLTINSLEAEDAAAYYCHQSSSLPFTFGPGTKVDIKR
notes: also called IL-1β parent antibody
EC50 [10]: 5.27 nM

B8: DVD293 (bispecific antibody, human IgG1, kappa)
heavy: not shown
light: DIVMTQSQKFMSTSVGDRVSITCKASQNVGTAVAWYQQRPGQSPKLLIFSASNRYTGVPDRFTGSGSGTDFTLTLSNMQPEDLADYFCQQYSSYPLTFGVGTKLELKRTVAAPDVVMTQSPLSLPVTPGEPASISCKSSQSLLDSDGKTYLNWLLQKPGQSPQRLIYLVSKLDSGVPDRFSGSGSGTDFTLKISRVEAEDVGVYYCWQGTHFPRTFGQGTKVEIKRTVAAPSVFIFPPSDEQLKSGTASVVCLLNNFYPREAKVQWKVDNALQSGNSQESVTEQDSKDSTYSLSSTLTLSKADYEKHKVYACEVTHQGLSSPVTKSFNRGEC
notes: DVD-Ig; also called VD293H/VD293L
EC50 [1]: 0.048 nM
EC50 [11]: 7.32 nM
